From PMC8126848 (Proceedings of the National Academy of Sciences of the …, 2021)

Molecular target: soluble ectodomain of ICAM-1 (intercellular adhesion molecule-1), domains D1 to D5 (UniProt P05362 28-480)
Assay: cryo-EM structure

soluble ectodomain of ICAM-1 (intercellular adhesion molecule-1), domains D1 to D5, sequence (P05362 28-480): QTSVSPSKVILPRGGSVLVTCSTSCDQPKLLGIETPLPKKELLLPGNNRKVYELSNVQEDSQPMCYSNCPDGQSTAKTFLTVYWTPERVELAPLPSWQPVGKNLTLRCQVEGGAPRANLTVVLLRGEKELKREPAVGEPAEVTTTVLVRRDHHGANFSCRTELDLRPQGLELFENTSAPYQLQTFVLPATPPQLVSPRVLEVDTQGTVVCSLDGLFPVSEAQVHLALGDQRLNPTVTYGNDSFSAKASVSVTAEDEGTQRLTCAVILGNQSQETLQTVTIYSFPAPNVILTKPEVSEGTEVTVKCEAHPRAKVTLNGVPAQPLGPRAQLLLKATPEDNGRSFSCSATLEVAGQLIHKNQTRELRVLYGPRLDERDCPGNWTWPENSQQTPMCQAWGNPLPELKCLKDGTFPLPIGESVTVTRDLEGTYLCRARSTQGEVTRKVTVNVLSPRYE

B1: rhinovirus 14 capsid protein VP2 (natural protein, rhinovirus 14 (strain 1059), UniProt P03303 70-331, looked up)
chain: SPNVEACGYSDRVQQITLGNSTITTQEAANAVVCYAEWPEYLPDVDASDVNKTSKPDTSVCRFYTLDSKTWTTGSKGWCWKLPDALKDMGVFGQNMFFHSLGRSGYTVHVQCNATKFHSGCLLVVVIPEHQLASHEGGNVSVKYTFTHPGERGIDLSSANEVGGPVKDVIYNMNGTLLGNLLIFPHQFINLRTNNTATIVIPYINSVPIDSMTRHNNVSLMVIPIAPLTVPTGATPSLPITVTIAPMCTEFSGIRSKSIVPQ
B1: binds.
